Test results: patent US20090221474A1

Experiments:
[1] = target: bovine HD1 (bovine thymus trapoxin binding proteins p46-p49) (bovine) (UniProt Q32PJ8); assay: depletion of bovine thymus Mono Q fractions by the K-trap affinity matrix
[2] = target: bovine HD1 (bovine thymus trapoxin binding proteins p46-p49) (bovine) (UniProt Q32PJ8); assay: cell-based or functional assay

Chain of bovine HD1 (bovine thymus trapoxin binding proteins p46-p49) (bovine) (Q32PJ8 whole entry): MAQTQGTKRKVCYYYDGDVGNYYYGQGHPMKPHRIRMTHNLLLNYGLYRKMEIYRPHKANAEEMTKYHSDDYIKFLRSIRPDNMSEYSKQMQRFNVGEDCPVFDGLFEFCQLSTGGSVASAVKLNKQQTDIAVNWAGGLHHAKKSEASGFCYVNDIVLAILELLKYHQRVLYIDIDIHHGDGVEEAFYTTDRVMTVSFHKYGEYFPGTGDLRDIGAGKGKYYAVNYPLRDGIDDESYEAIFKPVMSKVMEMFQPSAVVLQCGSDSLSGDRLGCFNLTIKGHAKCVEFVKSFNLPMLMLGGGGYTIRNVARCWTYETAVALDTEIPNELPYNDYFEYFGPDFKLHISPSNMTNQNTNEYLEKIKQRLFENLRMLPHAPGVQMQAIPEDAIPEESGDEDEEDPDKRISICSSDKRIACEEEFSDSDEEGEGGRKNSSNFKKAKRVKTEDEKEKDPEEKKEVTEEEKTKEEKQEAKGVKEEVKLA

| percent of trapoxin binding and histone deacetylase activity depleted [1] | inhibition of histone deacetylase activity [2] | Substance |
| --- | --- | --- |
| 90% |  | K-trap affinity matrix (peptide) |
|  | 20 nM | trapoxin (peptide) |
